This assay addresses gima7_human GIMAP7 (UniProt Q8NHV1).

gima7_human GIMAP7, sequence (Q8NHV1 whole entry): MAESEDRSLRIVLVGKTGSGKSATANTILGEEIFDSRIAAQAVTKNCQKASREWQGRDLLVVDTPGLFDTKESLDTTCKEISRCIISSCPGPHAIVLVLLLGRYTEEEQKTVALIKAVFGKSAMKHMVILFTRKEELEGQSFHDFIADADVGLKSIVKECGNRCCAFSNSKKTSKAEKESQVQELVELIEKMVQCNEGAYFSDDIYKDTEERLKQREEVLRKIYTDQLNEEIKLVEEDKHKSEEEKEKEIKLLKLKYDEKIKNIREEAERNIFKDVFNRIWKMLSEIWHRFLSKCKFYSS
GTPase IMAP family member 2 (Homo sapiens), Q9UG22 R117D, sequence (Q9UG22 whole entry R117D): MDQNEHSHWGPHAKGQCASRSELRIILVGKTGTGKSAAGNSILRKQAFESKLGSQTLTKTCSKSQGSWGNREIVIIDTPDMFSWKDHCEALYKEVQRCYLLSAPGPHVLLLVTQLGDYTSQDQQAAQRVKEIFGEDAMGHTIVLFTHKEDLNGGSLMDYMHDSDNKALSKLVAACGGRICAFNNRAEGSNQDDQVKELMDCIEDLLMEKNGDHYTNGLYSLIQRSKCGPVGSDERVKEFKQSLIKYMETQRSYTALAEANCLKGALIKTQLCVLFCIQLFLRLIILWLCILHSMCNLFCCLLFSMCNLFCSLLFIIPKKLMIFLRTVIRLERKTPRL
GTPase IMAP family member 2 (Homo sapiens), Q9UG22 S54A, sequence (Q9UG22 whole entry S54A): as the sequence (Q9UG22 whole entry R117D) above, with S54A, D117R counted along it

Consider “GTPase IMAP family member 2 (Homo sapiens), Q9UG22 R117D”, for which the “effect of a mutation on the interaction” value is listed as “disrupting interaction strength”. Regarding “GTPase IMAP family member 2 (Homo sapiens), Q9UG22 S54A”, the “effect of a mutation on the interaction” value is given as “disrupting interaction strength”.

(Values after IntAct's records for PubMed 23454188.)
